These results are taken from the RNAGym collection of RNA variant scans (doi:10.1093/molbev/msab373).

First the molecules themselves.
B1: Azoarcus group I ribozyme (parent)
chain: GUGCCUUGCGCCGGGAAACCACGCAAGGGAUGGUGUCAAAUUCGGCGAAACCUAAGCGCCCGCCCGGGCGUAUGGCAACGCCGAGCCAAGCUUCGGCGCCUGCGCCGAUGAAGGUGUAGAGACUAGACGGCACCCACCUAAGGCAAACGCUAUGGUGAAGGCAUAGUCCAGGGAGUGGCGAAAGUCACACAAACCGG

The variants in this data set derive from B1. The experiment in a line: reverse-splicing fitness (ratio to wild type); higher = more active; in vitro selection; Mg2+ level not given. Summed up: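 An in vitro group I ribozyme library with randomized positions was T7-transcribed and gel-purified. In triplicate, 10 pmol RNA in EPPS pH 7.5 was reacted with 50 pmoles of a 30-nt RNA substrate for 1 h at 37 °C across several added MgCl2 levels (1–48 mM), then stopped with EDTA. Products were reverse transcribed from a substrate-complementary primer, PCR-amplified and sequenced (HiSeq 4000). Fitness is a variant's read proportion after selection over that before, normalised to wild type.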
As for GUGCCUUGCGCCGGGAAACCACGCAAGGGAUGGUGUCAAAUUCGGCGAAACCUAAGCGCCCGCCCGGGCGUAUGGCAACGCUGAGCCAAGCUUCGGCGCCUGCGCCGAUGAAGGUGUAGCGACUAGACGGCACCCACCUAAGGCCAACGAUAUGGUGAAGGCAUAGUCAAGGGAGUGGCGAAAGUCACACAAACCGG, the reverse-splicing fitness is 0.00632.

Consider GUGCCUUGCGCCGGGAAACCACGCAAGGGAUGGUGUCAAAUUCGGCGAAACCUAAGCGCCCGCCCGGGCGUAUGGCAACGCUGAGCCAAGCUUCGGCGCCUGCGCCGAUGAAGGUGUAGCGACUAGACGGCACCCACCUAAGGCCAACGAUAUGGUGAAGGCAUAGUCUAGGGAGUGGCGAAAGUCACACAAACCGG, for which the reverse-splicing fitness is 0.00777.

With GUGCCUUGCGCCGGGAAACCACGCAAGGGAUGGUGUCAAAUUCGGCGAAACCUAAGCGCCCGCCCGGGCGUAUGGCAACGCUGAGCCAAGCUUCGGCGCCUGCGCCGAUGAAGGUGUAGCGACUAGACGGCACCCACCUAAGGCCAACGAUAUGGUGAAGGCAUAGUCGAGGGAGUGGCGAAAGUCACACAAACCGG, the reverse-splicing fitness was 0.00551.

As to GUGCCUUGCGCCGGGAAACCACGCAAGGGAUGGUGUCAAAUUCGGCGAAACCUAAGCGCCCGCCCGGGCGUAUGGCAACGCUGAGCCAAGCUUCGGCGCCUGCGCCGAUGAAGGUGUAGCGACUAGACGGCACCCACCUAAGGCCAACGGUAUGGUGAAGGCAUAGUCCAGGGAGAGGCGAAAGUCACACAAACCGG, the reverse-splicing fitness is 0.00639.

On to GUGCCUUGCGCCGGGAAACCACGCAAGGGAUGGUGUCAAAUUCGGCGAAACCUAAGCGCCCGCCCGGGCGUAUGGCAACGCUGAGCCAAGCUUCGGCGCCUGCGCCGAUGAAGGUGUAGCGACUAGACGGCACCCACCUAAGGCCAACGGUAUGGUGAAGGCAUAGUCGAGGGAGAGGCGAAAGUCACACAAACCGG, for which the reverse-splicing fitness was found to be 0.00773.

GUGCCUUGCGCCGGGAAACCACGCAAGGGAUGGUGUCAAAUUCGGCGAAACCUAAGCGCCCGCCCGGGCGUAUGGCAACGCUGAGCCAAGCUUCGGCGCCUGCGCCGAUGAAGGUGUAGCGACUAGACGGCACCCACCUAAGGCCAACGGUAUGGUGAAGGCAUAGUCGAGGGAGCGGCGAAAGUCACACAAACCGG: the reverse-splicing fitness stood at 0.00518.

Regarding GUGCCUUGCGCCGGGAAACCACGCAAGGGAUGGUGUCAAAUUCGGCGAAACCUAAGCGCCCGCCCGGGCGUAUGGCAACGCUGAGCCAAGCUUCGGCGCCUGCGCCGAUGAAGGUGUAGCGACUAGACGGCACCCACCUAAGGCCAACGGUAUGGUGAAGGCAUAGUCGAGGGAGGGGCGAAAGUCACACAAACCGG, the reverse-splicing fitness was 0.00305.

For GUGCCUUGCGCCGGGAAACCACGCAAGGGAUGGUGUCAAAUUCGGCGAAACCUAAGCGCCCGCCCGGGCGUAUGGCAACGCUGAGCCAAGCUUCGGCGCCUGCGCCGAUGAAGGUGUAGCGACUAGACGGCACCCACCUAAGGCCAACGAUAUGGUGAAGGCAUAGUCCAGGGAGGGGCGAAAGUCACACAAACCGG, the reverse-splicing fitness worked out at 0.00472.

As for GUGCCUUGCGCCGGGAAACCACGCAAGGGAUGGUGUCAAAUUCGGCGAAACCUAAGCGCCCGCCCGGGCGUAUGGCAACGCUGAGCCAAGCUUCGGCGCCUGCGCCGAUGAAGGUGUAGCGACUAGACGGCACCCACCUAAGGCCAACGAUAUGGUGAAGGCAUAGUCCAGGGAGAGGCGAAAGUCACACAAACCGG, the reverse-splicing fitness is 0.00873.

Consider GUGCCUUGCGCCGGGAAACCACGCAAGGGAUGGUGUCAAAUUCGGCGAAACCUAAGCGCCCGCCCGGGCGUAUGGCAACGCUGAGCCAAGCUUCGGCGCCUGCGCCGAUGAAGGUGUAGCGACUAGACGGCACCCACCUAAGGCCAACGAUAUGGUGAAGGCAUAGUCCAGGGAGCGGCGAAAGUCACACAAACCGG, for which the reverse-splicing fitness was found to be 0.00962.

For GUGCCUUGCGCCGGGAAACCACGCAAGGGAUGGUGUCAAAUUCGGCGAAACCUAAGCGCCCGCCCGGGCGUAUGGCAACGCUGAGCCAAGCUUCGGCGCCUGCGCCGAUGAAGGUGUAGCGACUAGACGGCACCCACCUAAGGCCAACGGUAUGGUGAAGGCAUAGUCAAGGGAGCGGCGAAAGUCACACAAACCGG, the reverse-splicing fitness came out at 0.0042.

For GUGCCUUGCGCCGGGAAACCACGCAAGGGAUGGUGUCAAAUUCGGCGAAACCUAAGCGCCCGCCCGGGCGUAUGGCAACGCUGAGCCAAGCUUCGGCGCCUGCGCCGAUGAAGGUGUAGCGACUAGACGGCACCCACCUAAGGCCAACGGUAUGGUGAAGGCAUAGUCAAGGGAGGGGCGAAAGUCACACAAACCGG, the reverse-splicing fitness turned out to be 0.00379.

In the case of GUGCCUUGCGCCGGGAAACCACGCAAGGGAUGGUGUCAAAUUCGGCGAAACCUAAGCGCCCGCCCGGGCGUAUGGCAACGCUGAGCCAAGCUUCGGCGCCUGCGCCGAUGAAGGUGUAGCGACUAGACGGCACCCACCUAAGGCCAACGGUAUGGUGAAGGCAUAGUCAAGGGAGAGGCGAAAGUCACACAAACCGG, the reverse-splicing fitness came out at 0.00866.

Turning to GUGCCUUGCGCCGGGAAACCACGCAAGGGAUGGUGUCAAAUUCGGCGAAACCUAAGCGCCCGCCCGGGCGUAUGGCAACGCUGAGCCAAGCUUCGGCGCCUGCGCCGAUGAAGGUGUAGCGACUAGACGGCACCCACCUAAGGCCAACGAUAUGGUGAAGGCAUAGUCCAGGGAGUGGCGAAAGUCACACAAACCGG, the reverse-splicing fitness came to 0.0114.

Regarding GUGCCUUGCGCCGGGAAACCACGCAAGGGAUGGUGUCAAAUUCGGCGAAACCUAAGCGCCCGCCCGGGCGUAUGGCAACGCUGAGCCAAGCUUCGGCGCCUGCGCCGAUGAAGGUGUAGCGACUAGACGGCACCCACCUAAGGCCAACGGUAUGGUGAAGGCAUAGUCCAGGGAGUGGCGAAAGUCACACAAACCGG, the reverse-splicing fitness was 0.0204.
